Laboratory results taken from patent publication US20160176970A1 (published 2016).

Target: T1, pig α2β1 integrin (pig, UniProt F1SMF4 28-1178; Q9GLP0 21-798)
T1 construct: whole, on cells; Tested with whole blood
Assay: FACS on whole blood, PE-coupled goat anti-mouse IgG

binding result: no binding
B1: anti-α2 integrin mAb purified from hybridoma supernatant (murine) (antibody, mouse IgG2a, kappa)
light: NIVLTQSPASLAVSLGQRATISCRASESVESYGNSFIYWYQQKPGQAPKLLIYLASNLASGVPARFSGSGSRTDFTLTIDPVEADDAATYYCQQNNEDPYTFGGGTKLEIKRADAAPTVSIFPPSSEQLTSGGASVVCFLNNFYPKDINVKWKIDGSERQNGVLNSWTDQDSKDSTYSMSSTLTLTKDEYERHNSYTCEATHKTSTSPIVKSFNRNEC
heavy: QVQLHQPGAELVKPGAPVKLSCKASGYTFTSYWMNWVKQRPGRGLEWIGRIDPSDSETHYNQKFKDKATLTVDKSSSTAYIQLSSLTSEDSAVYYCAKVGRGYFDYWGQGTTLTVSSAKTTAPSVYPLAPVCGDTTGSSVTLGCLVKGYFPEPVTLTWNSGSLSSGVHTFPAVLQSDLYTLSSSVTVTSSTWPSQSITCNVAHPASSTKVDKKIEPRGPTIKPCPPCKCPAPNLLGGPSVFIFPPKIKDVLMISLSPIVTCVVVDVSEDDPDVQISWFVNNVEVHTAQTQTHREDYNSTLRVVSALPIQHQDWMSGKEFKCKVNNKDLPAPIERTISKPKGSVRAPQVYVLPPPEEEMTKKQVTLTCMVTDFMPEDIYVEWTNNGKTELNYKNTEPVLDSDGSYFMYSKLRVEKKNWVERNSYSCSVVHEGLHNHHTTKSFSRTPGK
notes: also called α2 mAb from hybridoma supernatant; anti-α2 integrin monoclonal mouse antibody
